What all share (experiment): fluorescence polarization
Holding throughout (details): FP: 50 mM Tris/HCl pH 8.0, 150 mM NaCl, 1 mM TCEP, 0.1 mg/ml BSA, 0.5 nM DNA, RT 10 min, EMSA: 10 mM HEPES pH 7.5, 100 mM KCl, 5 mM MgSO4, 5% glycerol
(In general: Polarisation of emitted light reports the rotation of a fluorescent probe.)

Data set [1] concerns His6::AvrBs3ΔN152 (Xanthomonas campestris pv. vesicatoria).
Data set [2] deals with His6::AvrBs3 (Xanthomonas campestris pv. vesicatoria).
The test system of data set [3] is His6::AvrBs3ΔN152-C16 (Xanthomonas campestris pv. vesicatoria).

The values that follow come from PMC4363659.

The term Kd denotes the concentration at which binding is half-saturated. Lower therefore signals higher affinity. Turning to “E1U20 36-bp UPA20 promoter fragment (fluorescein)”, the equilibrium dissociation constant (Kd) in data set [1] was 99.2 nM; in data set [2], 23.2 nM; in data set [3] it was 282 nM.
